Results as given in the Immune Epitope Database (IEDB).

What was measured:
HLA-A*02:01 [1] = assay: IEDB peptide-MHC binding, purified MHC/competitive/radioactivity; ≥ and ≤ were set here for values at or beyond the usual limits of such assays
HLA-B*57:01 [2] = assay: IEDB peptide-MHC binding, purified MHC/competitive/fluorescence; filed as Kd, often an IC50 or EC50 that approximates it; ≥ and ≤ were set here for values at or beyond the usual limits of such assays; conditions: source organism: Variola virus
HLA-A*01:01 = assay: as above; conditions: source organism: Variola virus
HLA-A*26:02 = assay: as above; conditions: source organism: Variola virus
HLA-B*15:17 = assay: as above; conditions: source organism: Variola virus
HLA-A*02:01 [3] = assay: IEDB peptide-MHC binding, purified MHC/direct/fluorescence; filed as Kd, often an IC50 or EC50 that approximates it; ≥ and ≤ were set here for values at or beyond the usual limits of such assays; conditions: source organism: Camelpox virus CMS
HLA-B*27:05 = assay: as above; conditions: source organism: Camelpox virus CMS
HLA-B*39:01 = assay: as above; conditions: source organism: Camelpox virus CMS
HLA-B*18:01 = assay: as above; conditions: source organism: Camelpox virus CMS
HLA-A*69:01 = assay: as above; conditions: source organism: Camelpox virus CMS
HLA-B*07:02 = assay: as above; conditions: source organism: Camelpox virus CMS
HLA-B*58:01 = assay: as above
HLA-B*15:01 = assay: as above; conditions: source organism: Camelpox virus CMS
HLA-B*48:01 = assay: as above; conditions: source organism: Camelpox virus CMS
HLA-B*46:01 [4] = assay: as above; conditions: source organism: Camelpox virus CMS
HLA-B*40:01 = assay: as above; conditions: source organism: Camelpox virus CMS
HLA-A*68:02 = assay: as above; conditions: source organism: Camelpox virus CMS
HLA-B*46:01 [5] = assay: IEDB peptide-MHC binding, purified MHC/competitive/fluorescence; filed as Kd, often an IC50 or EC50 that approximates it; ≥ and ≤ were set here for values at or beyond the usual limits of such assays; conditions: source organism: Mycobacterium tuberculosis variant bovis BCG str. Pasteur 1173P2
HLA-B*57:01 [6] = assay: IEDB peptide-MHC binding, purified MHC/direct/fluorescence; filed as Kd, often an IC50 or EC50 that approximates it; ≥ and ≤ were set here for values at or beyond the usual limits of such assays; conditions: source organism: Mycobacterium tuberculosis variant bovis
HLA-C*12:03 = assay: as above
HLA-A*02:01 [7] = assay: IEDB peptide-MHC binding, purified MHC/competitive/fluorescence; filed as Kd, often an IC50 or EC50 that approximates it; ≥ and ≤ were set here for values at or beyond the usual limits of such assays; conditions: source organism: Canarypox virus
HLA-A*02:11 = assay: as above; conditions: source organism: Canarypox virus
HLA-C*03:03 = assay: IEDB peptide-MHC binding, purified MHC/direct/fluorescence; filed as Kd, often an IC50 or EC50 that approximates it; ≥ and ≤ were set here for values at or beyond the usual limits of such assays; conditions: source organism: Canarypox virus
HLA-C*15:02 = assay: as above; conditions: source organism: Canarypox virus

LLDVPTAAV was tested. Which IC50 (HLA-A*02:01 [1]; source organism: Homo sapiens) did it give?
The IC50 was 10 nM.

How did the IC50 (HLA-A*02:01 [1]; source organism: Rhinovirus A) turn out when NLIYRNLHL was run?
The IC50 was 200 nM.

Which Kd (HLA-B*57:01 [2]) does the source give for SSDDIPPRW here?
Its Kd is 1480 nM.

What about the Kd (HLA-A*01:01) of the same sequence?
The Kd was no less than 20000 nM.

What about the Kd (HLA-A*26:02) of the same sequence?
The Kd was no less than 20000 nM.

What about the Kd (HLA-B*15:17) of the same sequence?
The Kd was no less than 20000 nM.

And the Kd (HLA-A*02:01 [3])?
The Kd was no less than 20000 nM.

And the Kd (HLA-B*27:05)?
The Kd was no less than 20000 nM.

And the Kd (HLA-B*39:01)?
The Kd was no less than 20000 nM.

And the Kd (HLA-B*18:01)?
Its Kd is no less than 20000 nM.

And the Kd (HLA-A*69:01)?
Its Kd is no less than 20000 nM.

What about the Kd (HLA-B*07:02) of the same sequence?
The Kd was no less than 20000 nM.

What about the Kd (HLA-B*58:01; source organism: Camelpox virus CMS) of the same sequence?
The Kd was 27.9 nM.

And the Kd (HLA-B*15:01)?
Its Kd is no less than 20000 nM.

And the Kd (HLA-B*48:01)?
The Kd was no less than 20000 nM.

And the Kd (HLA-B*46:01 [4])?
Its Kd is no less than 20000 nM.

And the Kd (HLA-B*40:01)?
The Kd was no less than 20000 nM.

And the Kd (HLA-A*68:02)?
Its Kd is no less than 20000 nM.

Which results are given for VAFYCAGRF?
Kd (HLA-B*46:01 [5]): 748 nM; Kd (HLA-B*57:01 [6]): 450 nM; Kd (HLA-B*58:01; source organism: Mycobacterium tuberculosis variant bovis): 112 nM; Kd (HLA-C*12:03; source organism: Mycobacterium tuberculosis variant bovis BCG str. Pasteur 1173P2): 58 nM

What does the source list for YIIPCILIL?
Kd (HLA-A*02:01 [7]): 59.4 nM; Kd (HLA-A*02:11): 240 nM; Kd (HLA-C*03:03): 229 nM; Kd (HLA-C*15:02): ≥ 20000 nM; Kd (HLA-C*12:03; source organism: Canarypox virus): 327 nM

For YLDSGIHSGA, which IC50 (HLA-A*02:01 [1]; source organism: Homo sapiens) is on record?
Its IC50 is 83.5 nM.
